In this experiment the target is Strep-Tactin Macroprep resin (Cat. No. 2-1505-010; IBA GmbH). As to the kind of experiment: batch binding to Strep-Tactin Macroprep resin, 1 hour in cold room; binding followed by MTSP10 activity left in the supernatant.

B1: MTSP10-ST2 C122S (protease domain of human MTSP10, C122S mutant, with C-terminal Strep-tag II, expressed in Pichia pastoris) (enzyme)
chain: RIIGGTDTLEGGWPWQVSLHFVGSAYCGASVISREWLLSAAHCFHGNRLSDPTPWTAHLGMYVQGNAKFVSPVRRIVVHEYYNSQTFDYDIALLQLSIAWPETLKQLIQPISIPPTGQRVRSGEKCWVTGWGRRHEADNKGSLVLQQAEVELIDQTLCVSTYGIITSRMLCAGIMSGKRDACKGDSGGPLSCRRKSDGKWILTGIVSWGHGCGRPNFPGVYTRVSNFVPWIGGWSHPQFEK
With B1, the percent of activity retained by the resin was 50 to 70%.

For the origin of these results see US20030235900A1.
